Data reported in US20020185139A1, “Methods for reducing postoperative intraocular pressure” (priority 2001, published 2002).

Test system: corneal endothelium
Design: species or system rabbits
Conditions: rabbit, in vivo
Description: In order to investigate the effect of hyaluronidase on the postoperative endothelium, the eyes of the rabbits from Experiment 1 were studied by performing vital staining of the corneal endothelium of the rabbits.

hyaluronidase
endothelial damage (vital staining of corneal endothelium): no endothelial damage
